Publication PMC9651861 (2022)

B1: Nb.B201 (VHH)
VHH: QVQLQESGGGLVQAGGSLRLSCAASGYISDAYYMGWYRQAPGKEREFVATITHGTNTYYADSVKGRFTISRDNAKNTVYLQMNSLKPEDTAVYYCAVLETRSYSFRYWGQGTQVTVSS
B2: DesAb-HSA-P2 (VHH)
VHH: EVQLEESGGGLVQPGGSLRLSCAASGFNIKDTYIGWVRQAPGKGEEWVASIYPTSGYTRYADSVKGRFTISADTSKNTAYLQMNSLRAEDTAVYYCAAGSAQAGNAEEAEEEFDYWGQGTLVTVSS
B3: DesAb-HSA-P2, C-terminal cysteine variant labelled with Alexa Fluor 647 (VHH)
VHH: EVQLEESGGGLVQPGGSLRLSCAASGFNIKDTYIGWVRQAPGKGEEWVASIYPTSGYTRYADSVKGRFTISADTSKNTAYLQMNSLRAEDTAVYYCAAGSAQAGNAEEAEEEFDYWGQGTLVTVSS
modifications: Alexa Fluor 647 (maleimide) on the free C-terminal cysteine of the Asp-Cys-Glu motif
B4: DesAb-HSA-P1, C-terminal cysteine variant labelled with Alexa Fluor 647 (VHH)
VHH: EVQLEESGGGLVQPGGSLRLSCAASGFNIKDTYIGWVRQAPGKGEEWVASIYPTSGYTRYADSVKGRFTISADTSKNTAYLQMNSLRAEDTAVYYCAAGSIQKSLQTAESILEEFDYWGQGTLVTVSS
modifications: Alexa Fluor 647 (maleimide) on the free C-terminal cysteine of the Asp-Cys-Glu motif
B5: DesAb-HSA-P1 (VHH)
VHH: EVQLEESGGGLVQPGGSLRLSCAASGFNIKDTYIGWVRQAPGKGEEWVASIYPTSGYTRYADSVKGRFTISADTSKNTAYLQMNSLRAEDTAVYYCAAGSIQKSLQTAESILEEFDYWGQGTLVTVSS
B6: DesAb-HSA-D3, C-terminal cysteine variant labelled with Alexa Fluor 647 (VHH)
VHH: EVQLQESGGGLVQAGGSLRLSCAASGELYALISMGWFRQAPGKEREFVAAISRNGDNTYYTDSVKGRFTISRDNAKNTVELQMNSLKPEDTAVYYCAADKFASPDGSVTIMTNEYDYWGQGTQVTVSD
modifications: Alexa Fluor 647 (maleimide) on the free C-terminal cysteine of the Asp-Cys-Glu motif
B7: DesAb-HSA-D3 (VHH)
VHH: EVQLQESGGGLVQAGGSLRLSCAASGELYALISMGWFRQAPGKEREFVAAISRNGDNTYYTDSVKGRFTISRDNAKNTVELQMNSLKPEDTAVYYCAADKFASPDGSVTIMTNEYDYWGQGTQVTVSD

Tests used:
human serum albumin [1] = target: T1, human serum albumin (human, UniProt P02768 25-609); experiment: BLI
human serum albumin [2] = target: T1, human serum albumin; experiment: BLI; remark: listed apart in the source
human serum albumin [3] = target: T1, human serum albumin; experiment: MST

Row | Binder | Kd (human serum albumin [2]) [µM] | Kd (human serum albumin [3]) [µM] | further results
1 | B1 |  |  | Kd (human serum albumin [1]): ~0.37 µM
2 | B2 | 0.412 |  | 
3 | B3 |  | 0.81 | 
4 | B4 |  | 0.14 | 
5 | B5 | 0.279 |  | 
6 | B6 |  | 0.146 | 
7 | B7 | 0.308 |  | 
